From patent US20250154215A1, “PHARMACEUTICAL COMPOSITION FOR TREATING COLITIS OR COLORECTAL CANCER COMPRISING COLON-TARGETED S100A8/A9-DERIVED SPECIFIC PEPTIDE” (Industry-University Cooperation Foundation Hanyang …, priority 2023, published 2025) come the findings set out here.

No end group written: not given here.

In series [1] the test system is OxaR CRC cells (HT29, HCT116 and SW480). As to the kind of experiment: WST-8-based cell viability assay in parental and drug-resistant CRC cell lines. Conditions: HT29, HCT116, SW480 OxaR; 24 hours. An excerpt:
To establish a CRC cell model resistant to oxaliplatin, doxorubicin, or 5-FU, HT29, HT116, and SW480 cells were exposed to progressively increasing concentrations of oxaliplatin, doxorubicin, or 5-FU. The established oxaliplatin, doxorubicin, and 5-FU resistant cells were named OxaR, DoxR, and 5-FuR cells, respectively.
To confirm the inhibitory effect of rCT-S100A8/A9 on oxaliplatin resistance, the present inventors performed a water-soluble tetrazolium-8 (WST-8)-based cell viability assay using parental cells of three CRC cell lines, HT29, HCT-116 and SW480, and their corresponding oxaliplatin-resistant (OxaR) cell lines. OxaR CRC cells (HT29, HCT116 and SW480) were established by long-term exposure of CRC cells to oxaliplatin as described in Example 1.
For orientation: Formazan colour is commonly taken as a measure of viable cells.

Series [2] can be described thus: The results of in vitro plasma stability, microsomal stability, CYP inhibition and PK profile of S100A8/A9 peptides and rCT-S100A8/A9 proteins. Conditions: mouse, plasma, ip, 1 mg/kg. The method, then:
Table printed on a drawing sheet, Fig. 5B
Title: The results of in vitro plasma stability, microsomal stability, CYP inhibition and PK profile of S100A8/A9 peptides and rCT-S100A8/A9 proteins
The patent's description of the figure: FIGS. 5A and 5B show the drug-like properties of rCT-S100A8/A9. […] Bacteria-purified 6×His-rCT-S100A8/9, rVehicle or rCT was analyzed by Coomassie staining or IB using αHis (bottom, left). BMDMs were incubated with rVehicle, rCT, or rCT-S100A8/9 for the indicated times and at the indicated concentrations, and then cell viability was measured by MTT assay (bottom, right). […] HLM, human liver microsomes; CYP, cytochrome P450. aTmax, arrival time; AUClast, total area under the plasma concentration-time curve from time 0 to the time of the last measurement; Cmax, maximum plasma concentration;
First reader's note: All values were measured after ip dosing of 1 mg/kg in mice (n = 5); the footnote for the raised a is not printed on the sheet, and the title stands once above both tables.

Series [3] deals with T1, endogenous TLR4 of mouse BMDMs and mouse colon (mouse, UniProt Q9QUK6 26-835).
T1 construct: whole, on cells; Endogenous protein, immunoprecipitated with αTLR4 from BMDM or colon lysates; also called toll-like receptor 4
T1 sequence (looked up): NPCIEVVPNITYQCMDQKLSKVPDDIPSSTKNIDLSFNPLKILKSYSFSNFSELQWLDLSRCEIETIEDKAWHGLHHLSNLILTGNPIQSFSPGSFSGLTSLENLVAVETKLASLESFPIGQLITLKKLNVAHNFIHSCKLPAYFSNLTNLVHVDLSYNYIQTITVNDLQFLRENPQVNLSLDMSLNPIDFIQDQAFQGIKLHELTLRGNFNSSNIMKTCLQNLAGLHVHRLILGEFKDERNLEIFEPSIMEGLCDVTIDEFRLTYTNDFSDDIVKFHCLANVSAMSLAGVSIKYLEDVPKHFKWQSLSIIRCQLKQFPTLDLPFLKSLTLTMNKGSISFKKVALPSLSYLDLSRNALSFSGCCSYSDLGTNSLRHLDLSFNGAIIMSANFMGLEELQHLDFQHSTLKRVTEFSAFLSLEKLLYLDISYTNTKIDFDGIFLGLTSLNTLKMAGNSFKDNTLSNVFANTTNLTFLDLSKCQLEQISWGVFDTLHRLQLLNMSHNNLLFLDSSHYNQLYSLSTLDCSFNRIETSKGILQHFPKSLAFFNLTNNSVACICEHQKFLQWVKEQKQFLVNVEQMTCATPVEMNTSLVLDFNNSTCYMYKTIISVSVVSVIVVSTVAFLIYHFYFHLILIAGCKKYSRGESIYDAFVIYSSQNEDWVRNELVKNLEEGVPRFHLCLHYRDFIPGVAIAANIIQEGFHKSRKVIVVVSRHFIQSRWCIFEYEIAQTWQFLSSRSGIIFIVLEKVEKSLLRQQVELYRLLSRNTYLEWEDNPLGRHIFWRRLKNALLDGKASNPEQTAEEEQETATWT
As to the kind of experiment: co-IP from mouse colon lysates (IP αTLR4, IB αS100A8), FIG. 1D. The method, then: (§1) The 293T cells were used for immunoprecipitation (IP) including αMyc, and then for immunoblotting (IB) including αHA or αHis. […] Bone marrow-derived macrophages (BMDMs) were incubated with rHA-S100A8 or rHis-S100A9 (5 μg/ml) for 10 minutes. The BMDMs were subjected to IP using αTLR4 (FIG. 1A, right) or αRAGE (FIG. 1B, right), and then subjected to IB using αHA, αHis, αTLR4, or αRAGE. The WCLs were used for IB including αHA, αHis, αTLR4, αRAGE, or αActin. In FIG. 1C, on the left, relative expression of S100A8 or S100A9 in colons of normal, acute colitis, chronic colitis, and colorectal cancer mice was determined, and biological replicates (n=10) were used for each condition. On the right, IB was performed on sera from normal, acute colitis, chronic colitis, and colorectal cancer mice using αS100A8 or αS100A9. Coomassie blue (CB)-stained gels show consistent loading of serum proteins. Data from 3 out of 10 samples is shown. […] The WCLs were used for IB including αS100A8, αS100A9, αTLR4, αRAGE, or αActin. Data is representative of seven independent experiments with similar results (FIGS. 1A-1D);
(§2) 293T, BMDMs, and THP-1 cells were treated as indicated and processed for analysis by GST pulldown, Western blotting, and co-IP analysis. For GST pulldown, 293T cells were harvested and lysed in an NP-40 buffer including a complete protease inhibitor cocktail (Roche, Basel, Switzerland). […]

The target of series [4] is T2, endogenous RAGE of mouse BMDMs and mouse colon (mouse, UniProt Q62151 23-402).
T2 construct: whole, on cells; Endogenous protein, immunoprecipitated with αRAGE from BMDM or colon lysates; also called receptor for advanced glycation end products
T2 sequence (Q62151 23-402): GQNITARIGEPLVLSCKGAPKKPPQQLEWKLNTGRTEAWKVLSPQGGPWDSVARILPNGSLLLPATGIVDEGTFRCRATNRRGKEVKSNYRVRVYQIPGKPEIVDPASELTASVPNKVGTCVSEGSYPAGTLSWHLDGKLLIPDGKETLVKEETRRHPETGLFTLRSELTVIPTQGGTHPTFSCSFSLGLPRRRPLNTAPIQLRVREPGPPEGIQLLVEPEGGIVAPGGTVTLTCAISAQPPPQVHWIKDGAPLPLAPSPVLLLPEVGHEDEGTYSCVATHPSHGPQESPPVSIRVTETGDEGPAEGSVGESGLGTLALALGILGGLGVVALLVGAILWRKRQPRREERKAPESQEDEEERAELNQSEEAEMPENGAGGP
As to the kind of experiment: co-IP from colon lysates of acute colitis, chronic colitis and CRC mice (IP αRAGE, IB αS100A8), FIG. 1D. The method, then: as §1, §2

Series [5] has as its target T2, endogenous RAGE of mouse BMDMs and …. The series is described as follows: co-IP in BMDMs incubated with recombinant protein at 5 µg/ml (IP αRAGE, IB αHA), FIG. 1B. On the procedure: as §1, §2
Series [6] deals with T1, endogenous TLR4 of mouse BMDMs and …. As to the kind of experiment: co-IP in BMDMs incubated with recombinant protein at 5 µg/ml (IP αTLR4, IB αHA), FIG. 1A. The method, then: as §1, §2
For series [7], the target named is T2, endogenous RAGE of mouse BMDMs and …. The series is described as follows: co-IP in BMDMs incubated with recombinant protein at 5 µg/ml (IP αRAGE, IB αHis), FIG. 1B. The method, then: as §1, §2
The target of series [8] is T1, endogenous TLR4 of mouse BMDMs and …. The series is described as follows: co-IP in BMDMs incubated with recombinant protein at 5 µg/ml (IP αTLR4, IB αHis), FIG. 1A. The method, then: as §1, §2
Series [9] addresses T2, endogenous RAGE of mouse BMDMs and …. As to the kind of experiment: co-IP from colon lysates of acute colitis, chronic colitis and CRC mice (IP αRAGE, IB αS100A9), FIG. 1D. The method, then: as §1, §2
The target in series [10] is T1, endogenous TLR4 of mouse BMDMs and …. As to the kind of experiment: co-IP from colon lysates of acute colitis, chronic colitis and CRC mice (IP αTLR4, IB αS100A9), FIG. 1D. On the procedure:
as §1, §2

Series [11] concerns TLR4 or RAGE. As to the kind of experiment: Co-IP of recombinant S100A8 or S100A9 with endogenous TLR4 or RAGE in BMDMs. The format is binding, mouse. The following applies: 5 μg/ml, 10 minutes. The method, then:
293T, BMDMs, and THP-1 cells were treated as indicated and processed for analysis by GST pulldown, Western blotting, and co-IP analysis. For GST pulldown, 293T cells were harvested and lysed in an NP-40 buffer including a complete protease inhibitor cocktail (Roche, Basel, Switzerland). After centrifugation, the supernatant was pre-cleared using protein A/G beads for two hours at 4° C. The pre-cleared lysates were mixed with a 50% slurry of glutathione-conjugated Sepharose beads (Amersham Biosciences, Amersham, UK), and binding reactions were performed for four hours at 4° C. by incubating the lysates at 4° C. The precipitate was extensively washed with a lysis buffer. Proteins bound to the glutathione beads were eluted by boiling for five minutes in a sodium dodecyl sulfate (SDS) loading buffer. For IP, cells were harvested and lysed in an NP-40 buffer supplemented with a complete protease inhibitor cocktail (Roche, Switzerland). […] For immunoblotting (IB), polypeptides were analyzed by SDS-polyacrylamide gel electrophoresis and transferred to polyvinylidene difluoride (PVDF) membranes (Bio-Rad, Hercules, CA, USA). […] Antibody binding was visualized by chemiluminescence (ECL; Millipore, Burlington, MA, USA) and detected using a Vilber chemiluminescence analyzer (Fusion SL 3; Vilber Lourmat). […]

Consider `O=C1[O][Pt]2([NH][C@@H]3CCCC[C@H]3[NH]2)[O]C1=O` [oxaliplatin, reference compound], for which the “cell viability of OxaR CRC cells” value in series [1] is reported as “significant resistance to oxaliplatin treatment”.
In the case of “FLVIKGGAHKSHKGGITIITFGGGHHGG [S100A8/A9]”, in series [2] (read-out: PK parameters (ip, 1 mg/kg, mice (n = 5))^a | Cmax), the Cmax turned out to be 102 ± 41.2 ng/mL. Besides, in [2] (read-out: PK parameters (ip, 1 mg/kg, mice (n = 5))^a | T1/2 (converted)), the half-life is 25.2 ± 30.6 min.

B1: endogenous mouse S100A8 (ligand, UniProt P27005 2-89, looked up)
chain: PSELEKALSNLIDVYHNYSNIQGNHHALYKNDFKKMVTTECPQFVQNINIENLFRELDINSDNAINFEEFLAMVIKVGVASHKDSHKE
notes: Endogenous protein detected with αS100A8 in co-immunoprecipitates
As to B1, the binding result in series [3] and in [4] was “binds” each time.

B2: rHA-mS100A8 (ligand)
chain: PSELEKALSNLIDVYHNYSNIQGNHHALYKNDFKKMVTTECPQFVQNINIENLFRELDINSDNAINFEEFLAMVIKVGVASHKDSHKE
notes: Recombinant protein added to BMDMs at 5 µg/ml; also called rHA-S100A8; rS100A8; not shown: HA tag
B2: the binding result in series [5] and in series [6] was “binds” in each case.

B3: rHis-mS100A9 (ligand)
chain: ANKAPSQMERSITTIIDTFHQYSRKEGHPDTLSKKEFRQMVEAQLATFMKKEKRNEALINDIMEDLDTNQDNQLSFEECMMLMAKLIFACHEKLHENNPRGHGHSHGKGCGK
notes: Recombinant protein added to BMDMs at 5 µg/ml; also called rHis-S100A9; rS100A9; not shown: His tag
With B3, the binding result in series [7] and in series [8] was “binds” each time.

B4: endogenous mouse S100A9 (ligand, UniProt P31725 2-113, looked up)
chain: ANKAPSQMERSITTIIDTFHQYSRKEGHPDTLSKKEFRQMVEAQLATFMKKEKRNEALINDIMEDLDTNQDNQLSFEECMMLMAKLIFACHEKLHENNPRGHGHSHGKGCGK
notes: Endogenous protein detected with αS100A9 in co-immunoprecipitates
With B4, the binding result in series [9] and in [10] was “binds” in each case.

B5: rHis-mS100A9: recombinant His-tagged S100A9 protein (protein)
chain: ANKAPSQMERSITTIIDTFHQYSRKEGHPDTLSKKEFRQMVEAQLATFMKKEKRNEALINDIMEDLDTNQDNQLSFEECMMLMAKLIFACHEKLHENNPRGHGHSHGKGCGK
modifications: left off: small tags and cut ends
notes: recombinant His-tagged S100A9 protein
On to B5, for which the “binding to PRRs (TLR4 and RAGE)” value in series [11] is “stronger binding to PRRs (TLR4 and RAGE) than rHA-mS100A8”.
